Target: the molecule itself
Experiment: SEC

B1: synthetic L-GroES (natural protein, E. coli, UniProt P0A6F9 1-97, looked up)
chain: MNIRPLHDRVIVKRKEVETKSAGGIVLTGSAAAKSTRGEVLAVGNGRILENGEVKPLDVKVGDIVIFNDGYGVKSEKIDNEEVLIMSESDILAIVEA
- binding result: binds

B2: recombinant GroES (natural protein, E. coli, UniProt P0A6F9 1-97, looked up)
chain: MNIRPLHDRVIVKRKEVETKSAGGIVLTGSAAAKSTRGEVLAVGNGRILENGEVKPLDVKVGDIVIFNDGYGVKSEKIDNEEVLIMSESDILAIVEA
- binding result: binds

Source: paper PMC5094862 (Journal of the American Chemical Society, 2016)
